Values of other authors, collected in US20130145495A1, “ENHANCED CARBON FIXATION IN PHOTOSYNTHETIC HOSTS” (DONALD DANFORTH PLANT SCIENCE CENTER, priority 2010, published 2013).

B1: hCAIII: human α-carbonic anhydrase isoenzyme III, cytosol (protein, UniProt P07451 2-260, looked up)
Carbonic anhydrase 3: AKEWGYASHNGPDHWHELFPNAKGENQSPVELHTKDIRHDPSLQPWSVSYDGGSAKTILNNGKTCRVVFDDTYDRSMLRGGPLPGPYRLRQFHLHWGSSDDHGSEHTVDGVKYAAELHLVHWNPKYNTFKEALKQRDGIAVIGIFLKIGHENGEFQIFLDALDKIKTKGKEAPFTKFDPSCLFPACRDYWTYQGSFTTPPCEECIVWLLLKEPMTVSSDQMAKLRSLLSSAENEPPVPLVSNWRPPQPINNRVVRASFK
B2: hCAXV: α-carbonic anhydrase isoenzyme XV, membrane (protein, UniProt Q99N23 19-324, looked up)
Carbonic anhydrase 15: VDSSGTWCYDSQDPKCGPAHWKELAPACGGPTQSPINIDLRLVQRDYTLKPFIFQGYDSAPQDPWVLENDGHTVLLRVNSCQQNCPAIRGAGLPSPEYRLLQLHFHWGSPGHQGSEHSLDEKHGSMEMHMVHMNTKYQSMEDARSQPDGFAILAVLLVEEDRDNTNFSAIVSGLKNLSSPGVAVNLTSTFALASLLPSALRLLRYYRYSGSLTTPGCEPAVLWTVFENTVPIGHAQVVQFQAVLQTGPPGLHPRPLTSNFRPQQPLGGRRISASPEASVRSSVSTLPCLHLALVGLGVGLRLWQGP
B3: hCAVI: human α-carbonic anhydrase isoenzyme VI, secreted (protein, UniProt P23280 18-308, looked up)
Carbonic anhydrase 6: QHVSDWTYSEGALDEAHWPQHYPACGGQRQSPINLQRTKVRYNPSLKGLNMTGYETQAGEFPMVNNGHTVQISLPSTMRMTVADGTVYIAQQMHFHWGGASSEISGSEHTVDGIRHVIEIHIVHYNSKYKSYDIAQDAPDGLAVLAAFVEVKNYPENTYYSNFISHLANIKYPGQRTTLTGLDVQDMLPRNLQHYYTYHGSLTTPPCTENVHWFVLADFVKLSRTQVWKLENSLLDHRNKTIHNDYRRTQPLNHRVVESNFPNQEYTLGSEFQFYLHKIEEILDYLRRALN
B4: hCAIV: human α-carbonic anhydrase isoenzyme IV, membrane (protein, UniProt P22748 19-284, looked up)
Carbonic anhydrase 4: AESHWCYEVQAESSNYPCLVPVKWGGNCQKDRQSPINIVTTKAKVDKKLGRFFFSGYDKKQTWTVQNNGHSVMMLLENKASISGGGLPAPYQAKQLHLHWSDLPYKGSEHSLDGEHFAMEMHIVHEKEKGTSRNVKEAQDPEDEIAVLAFLVEAGTQVNEGFQPLVEALSNIPKPEMSTTMAESSLLDLLPKEEKLRHYFRYLGSLTTPTCDEKVVWTVFREPIQLHREQILAFSQKLYYDKEQTVSMKDNVRPLQQLGQRTVIKS
B5: hCAVA: human α-carbonic anhydrase isoenzyme VA, mitochondria (protein, UniProt P35218 39-305, looked up)
Carbonic anhydrase 5A, …: CAWQTSNNTLHPLWTVPVSVPGGTRQSPINIQWRDSVYDPQLKPLRVSYEAASCLYIWNTGYLFQVEFDDATEASGISGGPLENHYRLKQFHFHWGAVNEGGSEHTVDGHAYPAELHLVHWNSVKYQNYKEAVVGENGLAVIGVFLKLGAHHQTLQRLVDILPEIKHKDARAAMRPFDPSTLLPTCWDYWTYAGSLTTPPLTESVTWIIQKEPVEVAPSQLSAFRTLLFSALGEEEKMMVNNYRPLQPLMNRKVWASFQATNEGTRS
B6: hCAXIV: human α-carbonic anhydrase isoenzyme XIV, transmembrane (protein, UniProt Q9ULX7 16-337, looked up)
Carbonic anhydrase 14: ADGGQHWTYEGPHGQDHWPASYPECGNNAQSPIDIQTDSVTFDPDLPALQPHGYDQPGTEPLDLHNNGHTVQLSLPSTLYLGGLPRKYVAAQLHLHWGQKGSPGGSEHQINSEATFAELHIVHYDSDSYDSLSEAAERPQGLAVLGILIEVGETKNIAYEHILSHLHEVRHKDQKTSVPPFNLRELLPKQLGQYFRYNGSLTTPPCYQSVLWTVFYRRSQISMEQLEKLQGTLFSTEEEPSKLLVQNYRALQPLNQRMVFASFIQAGSSYTTGEMLSLGVGILVGCLCLLLAVYFIARKIRKKRLENRKSVVFTSAQATTEA
B7: hCAVB: human α-carbonic anhydrase isoenzyme VB, mitochondria (protein, UniProt Q9Y2D0 34-317, looked up)
Carbonic anhydrase 5B, …: CSLYTCTYKTRNRALHPLWESVDLVPGGDRQSPINIRWRDSVYDPGLKPLTISYDPATCLHVWNNGYSFLVEFEDSTDKSVIKGGPLEHNYRLKQFHFHWGAIDAWGSEHTVDSKCFPAELHLVHWNAVRFENFEDAALEENGLAVIGVFLKLGKHHKELQKLVDTLPSIKHKDALVEFGSFDPSCLMPTCPDYWTYSGSLTTPPLSESVTWIIKKQPVEVDHDQLEQFRTLLFTSEGEKEKRMVDNFRPLQPLMNRTVRSSFRHDYVLNVQAKPKPATSQATP
B8: hCAVII: human α-carbonic anhydrase isoenzyme VII, cytosol (protein, UniProt P43166 1-264, looked up)
Carbonic anhydrase 7: MTGHHGWGYGQDDGPSHWHKLYPIAQGDRQSPINIISSQAVYSPSLQPLELSYEACMSLSITNNGHSVQVDFNDSDDRTVVTGGPLEGPYRLKQFHFHWGKKHDVGSEHTVDGKSFPSELHLVHWNAKKYSTFGEAASAPDGLAVVGVFLETGDEHPSMNRLTDALYMVRFKGTKAQFSCFNPKCLLPASRHYWTYPGSLTTPPLSESVTWIVLREPICISERQMGKFRSLLFTSEDDERIHMVNNFRPPQPLKGRVVKASFRA
B9: hCAXII: human α-carbonic anhydrase isoenzyme XII, transmembrane (protein, UniProt O43570 25-354, looked up)
Carbonic anhydrase 12: APVNGSKWTYFGPDGENSWSKKYPSCGGLLQSPIDLHSDILQYDASLTPLEFQGYNLSANKQFLLTNNGHSVKLNLPSDMHIQGLQSRYSATQLHLHWGNPNDPHGSEHTVSGQHFAAELHIVHYNSDLYPDASTASNKSEGLAVLAVLIEMGSFNPSYDKIFSHLQHVKYKGQEAFVPGFNIEELLPERTAEYYRYRGSLTTPPCNPTVLWTVFRNPVQISQEQLLALETALYCTHMDDPSPREMINNFRQVQKFDERLVYTSFSQVQVCTAAGLSLGIILSLALAGILGICIVVVVSIWLFRRKSIKKGDNKGVIYKPATKMETEAHA

System: carbonic anhydrase

“hCAXIII: human α-carbonic anhydrase isoenzyme XIII, cytosol” and “hCAI: human α-carbonic anhydrase isoenzyme I, cytosol” are within 1.5-fold of each other in Kcat: 150000 s⁻¹ for the first, 200000 s⁻¹ for the second.

Compared with B1, B2 is 47-fold higher in Kcat: 10000 s⁻¹ for the first, 470000 s⁻¹ for the second.

Compared with B3, B4 is 2.9-fold higher in Kcat: 340000 s⁻¹ for the first, 1e+06 s⁻¹ for the second.

B5 and B6 are within 1.5-fold of each other in Kcat: 290000 s⁻¹ for the first, 310000 s⁻¹ for the second.

B7 and B8 are the same in Kcat: 950000 s⁻¹ for the first, 950000 s⁻¹ for the second.

For B9, the Kcat is listed as 420000 s⁻¹.
